Columns and labels:
[1] = target: Nse2 ΔLoop1-SIM1 (budding yeast (Saccharomyces cerevisiae)) (UniProt P38632)
[2] = target: Nse2 1-267 (budding yeast (Saccharomyces cerevisiae)) (UniProt P38632)
[3] = target: Δ4C-Nse2 (ΔSIM2) (budding yeast (Saccharomyces cerevisiae)) (UniProt P38632)
[4] = target: Ubc9 A129K/K153R (yeast (Saccharomyces cerevisiae)) (UniProt P50623)

| multiple-turnover SUMO conjugation on cNse4 by Nse2 ΔLoop1-SIM1/Arm-Smc5 against WT-Nse2, 30 °C [1] | Kcat/KM of single-turnover SUMO conjugation on cp53 (0.5 to 8 µM) by WT Nse2/Arm-Smc5 with extra non-conjugatable Smt3, 2 °C [2] | Kcat/KM of single-turnover SUMO conjugation on cp53 (0.5 to 8 µM) by Δ4C-Nse2 (ΔSIM2)/Arm-Smc5 with extra non-conjugatable Smt3, 2 °C [3] | Kcat of single-turnover discharge of purified Ubc9 K153R~Smt3 K11C/D68R-Alexa488 thioester on cp53 by Nse2/Arm-Smc5, with against without 1.5-fold excess of non-conjugatable SUMOB, 30 °C [4] | Substance |
| --- | --- | --- | --- | --- |
| < 90 % reduction |  |  |  | FL Smt3 (from UniProt Q12306 1-101) (natural protein) |
|  | 0.025 | 0.007 | 3 fold | ΔN18 Smt3 (from UniProt Q12306 19-101) (domain or fragment) |
